System: MS2 coat protein
Assay: apparent KD of MS2 coat protein; designed switch direction (-1 OFF switch, 1 ON switch): -1; higher = weaker reporter binding
Outline: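 Stalled E. coli RNA polymerase transcribed designed RNA switches on Illumina chips, which were then titrated with SNAP-549-labelled MS2 coat protein, doubling from 0.7 or 1.5 nM to 3 µM. Steps lasted from 0.8–1.5 h at the lowest concentration to 10–20 min at the highest. The apparent KD is each design's median over clusters of curve-fitted normalised fluorescence.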

[1] = input ligand: microRNA oligo, concentration not stated
[2] = Eterna round: R95, input ligand: FMN 200 uM
[3] = Eterna round: R95, input ligand: microRNA oligo, concentration not stated
[4] = Eterna round: R95, input ligand: none

| Sequence | apparent KD of MS2 coat protein (input ligand: FMN 200 uM) | apparent KD of MS2 coat protein [1] | apparent KD of MS2 coat protein (input ligand: none) | apparent KD of MS2 coat protein [2] | apparent KD of MS2 coat protein [3] | apparent KD of MS2 coat protein [4] |
| --- | --- | --- | --- | --- | --- | --- |
| CUCGUGCAGCAAAGCUGUACGAGUACAUGAGGAUCACCCAUGUAGGAUAUGGUACGCUUUGCGUGCUAGAAGGAUAUGUGUAGG [Mat - Exclusion NG 3 - Mod of JL - D86] (Eterna round: R96, puzzle: Exclusion NG 3) | 37.5 nM | 24.1 nM | 36.1 nM | – | – | – |
| AGUACUAACACCGUUGUGUUAGUACAAUAAGCUUGUGAAACAUGAGGAUCACCCAUGUCCUCAUAAGCUCGUCUUAU [salish99_TOv2_r3_071] (puzzle: Sensor v3, turn-off variant 2) | – | – | – | 16.3 nM | 784 nM | 16.2 nM |
| UUCGUGCAGCUUUGCUGUACGCGUACAUGAGGAUCACCCAUGUAGGAUAUGGUAGGCUUUGCUUACUAGAAGGAUAUGGUGAGC [JL EXNG3 1.33] (Eterna round: R96, puzzle: Exclusion NG 3) | 85.6 nM | 37.2 nM | 36.1 nM | – | – | – |
| CAUACUGAAGUUAGGAUAUGCGGCCGAAUACGGAUGUAGAAGGGACAUGAGGAUCACCCAUGUAGAUAGUAAAG [EX-4 Malc #15] (puzzle: Brourd's mod of Exclusion 4) | – | – | – | 20.8 nM | 20.1 nM | 20.5 nM |
| AAAUCGGUAGAGGAUAUUGUACAGGAAACGGUGCAAGAAGGUUACACAUGAGGAUCACCCAUGUUAAAUAGCGA [EX6 #53] (Eterna round: R97, puzzle: Exclusion 6) | 26.9 nM | – | 18.1 nM | – | – | – |
| UUUUUACGAGGAUAUCGUUUUUUUCACAUGAGGAUCACCCAUGUUGUUUAUGUUUCGUUUCGAGAAGGCGUUUGUU [JR_E5_Sub065] (puzzle: Exclusion 5) | – | – | – | – | 26.1 nM | – |
| AGUCUGCUAGGAUAUACAUGAGGAUCACCCAUGUCUAUCAAUAGACUAUUAACCUGGUGUAGAAGGAGCUUGUA [Onatlacein] (puzzle: Exclusion 3) | – | – | – | – | 11.1 nM | – |
| GUCAUCAAACAUGGGAUCAACAUGAGGAUCACCCAUGUUGUCAAGUUUUUUGCUCGUCUUAUAAUACGUUUGAUGAC [Mod-Jxb] (Eterna round: R97, puzzle: Sensor, turn-off variant 1) | 16 nM | – | 16.4 nM | – | – | – |
| AUCAUGUAAGGAUAUCUGACAUGUGACGAAAGUCACUGUUCAGAGAAGGUACAUGAGGAUCACCCAUGUAGAAC [Ex4-3: 43] (puzzle: Exclusion 4) | – | – | – | – | 62.8 nM | – |
| ACAAGCUUGUAAUGAUUGAACAUGAGGAUCACCCAUGUAAAUGGAAGAACCAAUUUGAUAAGAUAUACUCGUCUUAU [JR_STOV1_Sub007] (Eterna round: R97, puzzle: Sensor, turn-off variant 1) | 57.8 nM | – | 59.1 nM | – | – | – |
| UGCAGACGAGGAUAUGAUAAAGAUCACAUGAGGAUCACCCAUGUAGCGUCGAUAGACGCAUCAGAAGGCGUCUGCA [E5/1-A2] (Eterna round: R97, puzzle: Exclusion 5) | 16.3 nM | – | 16 nM | – | – | – |
| GCCUCACUUGAGGAUCACCCAAGUCAGGAUAUCUACAAGCCGACCAUACCGGCUUGCAAGAGAAGGGACUCUAA [Esonreti] (Eterna round: R97, puzzle: Exclusion 1) | 246 nM | – | 31.8 nM | – | – | – |
| GGGUGACAUGAGGAUCACCCAUGUCAGGAUAUUGAUCGUGAUCGGAAAUGAUCGUGAUCGAGAAGGGACUGCCC [-27.4, -26.4 kcal, A 27% sequence 2] (Eterna round: R97, puzzle: Exclusion 1) | 224 nM | – | 52 nM | – | – | – |
| CGUGCGUAUGUGAGGAUAUGCUGGUCCUUGGAUCGGCAGAAGGCACAUGAGGAUCACCCAUGUGGUGUCGUCCA [salish99_Bmod_ex4_089] (puzzle: Brourd's mod of Exclusion 4) | – | – | – | – | 85.7 nM | – |
| AAAUAGCUUGAGGAUAUUGGACUGGAUUCAGUGCGAGAAGGCAAGACAUGAGGAUCACCCAUGUUGUGUUGGGA [EX6 #10] (Eterna round: R97, puzzle: Exclusion 6) | 180 nM | – | 91.6 nM | – | – | – |
| GGAUAAAACUGAGGAUAUGCGUAUAGAUAGAGAGCAGAAGGCAGACAUGAGGAUCACCCAUGUGAGUUCUCGAUAAGAAACACG [Prohibition 58 - Jieux - Exclusion NG 1] (Eterna round: R96, puzzle: Exclusion NG 1) | 118 nM | 36.1 nM | 35.2 nM | – | – | – |
| AACCUGAGGCUUUGCUUUAGGUGUACAUGAGGAUCACCCAUGUAGGAUAUGGUAGGCUUUGCUUACCAGAAGGACAUUUAGGUU [JL ENG3 1.15] (Eterna round: R96, puzzle: Exclusion NG 3) | 110 nM | 33.6 nM | 43 nM | – | – | – |
| AUGUCGGCAGGAUAUACAUGAGGAUCACCCAUGUAAAUUUUUCGUUUAACUUGAAUGUGUAGAAGGGCCAUGUA [Ex3 #69] (Eterna round: R97, puzzle: Exclusion 3) | 29.1 nM | – | 28.9 nM | – | – | – |

| Sequence | apparent KD of MS2 coat protein (input ligand: FMN 200 uM) | apparent KD of MS2 coat protein [1] | apparent KD of MS2 coat protein (input ligand: none) | apparent KD of MS2 coat protein [2] | apparent KD of MS2 coat protein [3] | apparent KD of MS2 coat protein [4] |
| --- | --- | --- | --- | --- | --- | --- |
| UUAUAUAGUGUGAGGAUAUGCUGGUCCUUGGAUCAGCAGAAGGCACAUGAGGAUCACCCAUGUAGUUAAUUUUA [JL bmx4 3.03] (puzzle: Brourd's mod of Exclusion 4) | – | – | – | 118 nM | 25.2 nM | 29 nM |
| UUCCUCGUUGUGAGGAUAUCGUCCGUGUUUUGUUACGAGAAGGCACAUGAGGAUCACCCAUGUUAUUUGAUUUU [JR_BMOE4_Sub074] (puzzle: Brourd's mod of Exclusion 4) | – | – | – | 83.6 nM | 36.8 nM | 37.9 nM |
| GGUAGUAUGAGUAGUCCUCAUUGAAGAGAUUAGUAAGAAACAUGAGGAUCACCCAUGUUAGAACAAGCUUUUGCUCA [JR_Sv3TOV2_Sub004] (puzzle: Sensor v3, turn-off variant 2) | – | – | – | 113 nM | 45.7 nM | 142 nM |
| AGUACUAACACGAAAGUGUUAGUACUAUAAGUUUGUGUUACAUGAGGAUCACCCAUGUCCUCAUAAGCUCGUCUUGU [Mat - Sensor v3 - Turn-off var 2 - D95] (puzzle: Sensor v3, turn-off variant 2) | – | – | – | 911 nM | 199 nM | 626 nM |
| CGAUGAGCGGUGAGGAUAUCGUGUUCGAAAGAACGUGAGAAGGCACAUGAGGAUCACCCAUGUGAUCCUCAUCG [Omei Ex4B A34] (Eterna round: R97, puzzle: Brourd's mod of Exclusion 4) | 21.4 nM | – | 15.2 nM | – | – | – |
| GUCUGGCUAGGAUAUACAGUGUCCACAAGUUAGUUACCCUAACAUGAGGAUCACCCAUGUAGAAGGAGUGAGAA [Revebeed] (Eterna round: R96, puzzle: Exclusion 2) | 355 nM | 34.7 nM | 45.4 nM | – | – | – |
| AAUAAUAAGGAGGAUAUCGUAUCGGAGACGAUACGAGAAGGCUUAACAUGAGGAUCACCCAUGUUCCUCAAUAA [Mat - Exclusion 6 - Eli Mod - D89] (puzzle: Exclusion 6) | – | – | – | – | 35.2 nM | – |
| UAAAAUUCGCGAGGAUAUGCGACCUAAUGGGAGGAUUGUCACAUGAGGAUCACCCAUGUCAGUCAGCAGAAGGCGCACCUGGUU [Anedmaon] (Eterna round: R96, puzzle: Exclusion NG 2) | 628 nM | 116 nM | 99.6 nM | – | – | – |
| CAUAUUCGAGGAUAUGCCUGAUGUCCUUAUGGAGCCCAUUCACAUGAGGAUCACCCAUGUAGAAGGCGGAUGCG [Eternabot (L1) Solution 37] (Eterna round: R97, puzzle: Exclusion 2) | 31.2 nM | – | 24.8 nM | – | – | – |
| AGUGUGUGGCAGGAUAUUCCGGUCGUUGGUCGGGAAGAAGGGUCUACAUGAGGAUCACCCAUGUGAGCGGUUGA [Ex6 #50] (Eterna round: R97, puzzle: Exclusion 6) | 489 nM | – | 379 nM | – | – | – |
| UCAGUUCUGCAAGGAUAUCGUCCUAGUUUGGUUCGAGAAGGUGCUUUUGUUUUUUCUUUGUGUUGACAUGAGGAUCACCCAUGU [JR_ExcNG1_Sub053] (Eterna round: R96, puzzle: Exclusion NG 1) | 20.7 nM | 13.8 nM | 27.1 nM | – | – | – |
| AAUUUACAUGAGGAUCACCCAUGUGAGGAUAUGAUACUAUGUACUUCGGUACAUAGUAUCAGAAGGCAUGUGGG [Ex1-3: 93] (puzzle: Exclusion 1) | – | – | – | – | 19.1 nM | – |
| UUUAGUUCAGGAUAUGUAGAAAUUAACAUGAGGAUCACCCAUGUAGAUCCUGAAUUAACUACAGAAGGGAACAUUU [JL-ex5-4.43 Brourd mod] (Eterna round: R97, puzzle: Exclusion 5) | 51.3 nM | – | 15.7 nM | – | – | – |
| CCGGAAGUAGAGGAUAUCGUAUCGGAUACGAUACGAGAAGGCUAUACAUGAGGAUCACCCAUGUGUCCUACCGG [Fiskers Ex 6 - 5] (puzzle: Exclusion 6) | – | – | – | – | 21.4 nM | – |
| ACAUUGGUAGUGAGGAUAUCGGUGUGAUAGAAUGCCGAGAAGGCACAUGAGGAUCACCCAUGUAAGAUUGGGCA [JR_BMEx4_Sub043] (Eterna round: R97, puzzle: Brourd's mod of Exclusion 4) | 299 nM | – | 186 nM | – | – | – |
| AUUAUAAGGAGAGGAUAUCUAAUAAUAUAUAUUAGAGAAGGCUCACAUGAGGAUCACCCAUGUUUUUUUUUUUUUUUUUUUUUU [Default title] (Eterna round: R96, puzzle: Exclusion NG 1) | 89.5 nM | 65 nM | 71.7 nM | – | – | – |
| UAUUCUGGAGGAUAUACAUGAGGAUCACCCAUGUAAAUUGUACAGAGCGGGAGUCUAUGUAGAAGGCUAGGACA [EX3 C.2] (Eterna round: R97, puzzle: Exclusion 3) | 60.8 nM | – | 19.1 nM | – | – | – |
